Results published in US20260055155A1, “INCRETIN ANALOG AND USE THEREOF” (SHANGHAI MINWEI BIOTECHNOLOGY CO., LTD, priority 2023, published 2026).
“Also recorded” adds a separate entry of the source. Each block holds one compound with its values, some of them ahead of it. Numbered stars: 1 amine (or outer) side, 2 acyl side, 3 side chain; on linkers, the order of the positions; unused ones are H or OH. Square brackets hold non-standard residues; d marks the D form. Side chains are listed from the residue outwards. Peptide text beside a SMILES is read from it. * marks the point of attachment. C20 diacid = O=C(O)CCCCCCCCCCCCCCCCCCC(=O)*; γGlu = O=C(O)[C@H](CCC(=O)[*:2])N[*:1]; AEEA = NCCOCCOCC(=O)O; Aib = CC(C)(N)C(=O)O

Legend:
[1] = stability of polypeptide in serum (GIP activity read-out with CHOK1-GIPR cells); type: in vitro ADME, cynomolgus monkey; settings: for Activity ratio (%, Relative to the sample at 0 h): 100 μg/ml in cynomolgus monkey serum, GIP activity
Protocol: Polypeptide 1 (SEQ ID NO. 1), polypeptide 3 (SEQ ID NO. 3) and control LY3437943 were diluted to 100 μg/ml with cynomolgus monkey serum, divided into 3 pieces with 200 μl/piece, respectively. One sample was placed in a −80° C. refrigerator as a zero reference, and the other two samples were placed in a 37° C. incubator and moved into a −80° C. refrigerator after 24 hours and 72 hours respectively. […] The activity changes of different samples after being placed for different periods of time were compared.

GIP receptor (human) = target: T1, GIP receptor (human) (UniProt P48546); assay: cell-based or functional assay
T1 sequence (looked up): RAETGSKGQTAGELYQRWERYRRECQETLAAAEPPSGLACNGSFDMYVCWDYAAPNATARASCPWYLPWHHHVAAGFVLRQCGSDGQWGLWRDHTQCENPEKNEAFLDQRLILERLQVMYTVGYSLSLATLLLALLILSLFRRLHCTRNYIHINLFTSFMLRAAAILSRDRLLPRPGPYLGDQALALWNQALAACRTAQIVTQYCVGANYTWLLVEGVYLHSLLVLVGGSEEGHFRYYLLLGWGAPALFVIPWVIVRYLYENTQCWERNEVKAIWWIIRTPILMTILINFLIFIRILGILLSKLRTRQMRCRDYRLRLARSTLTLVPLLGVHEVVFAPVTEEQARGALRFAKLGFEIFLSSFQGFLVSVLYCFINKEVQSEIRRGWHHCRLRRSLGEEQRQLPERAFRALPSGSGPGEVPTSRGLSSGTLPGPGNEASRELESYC

[2] = target: human GLP-1 receptor (human) (UniProt P43220); assay: cell-based or functional assay
GCG receptor = GCG receptor (UniProt P47871); assay: cell-based or functional assay

Compound: CC[C@H](C)[C@H](NC(=O)[C@H](CCCCNC(=O)COCCOCCNC(=O)CC[C@H](NC(=O)CCCCCCCCCCCCCCCCCCC(=O)O)C(=O)O)NC(=O)[C@H](CC(=O)O)NC(=O)[C@H](CC(C)C)NC(=O)[C@H](CC(C)C)NC(=O)[C@@H](NC(=O)[C@H](CO)NC(=O)[C@H](Cc1ccc(O)cc1)NC(=O)[C@H](CC(=O)O)NC(=O)[C@H](CO)NC(=O)[C@@H](NC(=O)[C@H](Cc1ccccc1)NC(=O)[C@@H](NC(=O)CNC(=O)[C@H](CCC(N)=O)NC(=O)C(C)(C)NC(=O)[C@@H](N)Cc1c[nH]cn1)[C@@H](C)O)[C@@H](C)O)[C@@H](C)CC)C(=O)N[C@@H](C)C(=O)N[C@@H](C)C(=O)N[C@@H](CCC(N)=O)C(=O)N[C@@H](C)C(=O)N[C@@H](Cc1ccccc1)C(=O)N[C@H](C(=O)N[C@@H](CCC(=O)O)C(=O)N[C@@H](Cc1c[nH]c2ccccc12)C(=O)N[C@@H](CC(C)C)C(=O)N[C@H](C(=O)N[C@@H](C)C(=O)NCC(=O)NCC(=O)N1CCC[C@H]1C(=O)N[C@@H](CO)C(=O)N[C@@H](CO)C(=O)NCC(=O)N[C@@H](C)C(=O)N1CCC[C@H]1C(=O)N1CCC[C@H]1C(=O)N1CCC[C@H]1C(=O)N[C@@H](CO)C(N)=O)[C@@H](C)CC)[C@@H](C)CC [Polypeptide 1] (H-H[Aib]QGTFTSDYSILLDK([AEEA-γGlu-C20 diacid])IAAQAFIEWLIAGGPSSGAPPPS-NH2; N-terminus and C-terminus assumed)
stability in serum (in words) ([1]; cynomolgus monkey serum, 37° C.): higher than that of polypeptide 3; also recorded: significantly improve polypeptide stability | Activity ratio (%, Relative to the sample at 0 h) ([1]; incubation time at 37° C. 0 h (zero reference)): 100% | Activity ratio (%, Relative to the sample at 0 h) ([1]; incubation time at 37° C. 72 h): 67.13%

EC50 (nmol/L), reporter gene in CHO-K1 cells (GIP receptor (human)): 0.059 nmol/L
Compound: GIP (from UniProt P09681 52-93) (ligand)

EC50 (nmol/L), CRE-luciferase reporter in CHO-K1 cells [2]: 1.95 nmol/L
Compound: GLP-1 (from UniProt P01275 92-128) (ligand)

Results of activity in human serum albumin system (GLP-1R) [2]: 540 | Results of activity in human serum albumin system (GCGR) (GCG receptor): 26 | Results of activity in human serum albumin system (GIPR) (GIP receptor (human)): 3.29
Compound: LY3437943 (peptide)
